Source: the supplement of paper PMC9732359
± gives the uncertainty stated by the source.

Assay: protein stability index of a GFP-peptide fusion (yeast GPS) (PSI 1-4); higher = more stable; sorted into four equal gates, so the index is relative within each strain
In short: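 Tiled 17-residue yeast protein peptides were fused downstream of GFP in a plasmid that also expresses Cherry, and the pooled library was carried in yeast. Mid-log cultures in leucine-free medium were sorted into four equal gates by GFP/Cherry fluorescence ratio, and plasmids from each gate were PCR-amplified and Illumina-sequenced, with reads assigned to strains by barcodes. The protein stability index for each peptide was each gate's read frequency times its gate number, summed.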

| Sequence | protein stability index (doa10∆) | protein stability index (pdr5∆) | protein stability index (san1∆) | protein stability index (ubr1∆) |
| --- | --- | --- | --- | --- |
| RTPVIISLRNNHKIIAR [SMD2] | 1.77 ± 0.042 | 1.97 ± 0.035 | 2.13 ± 0.06 | 1.81 ± 0.044 |
| RADIVRNIILEARFDVL [ISW2] | 2.66 ± 0.088 | 2.25 ± 0.071 | 2.09 ± 0.11 | 2.51 ± 0.073 |
| GTLWAHVLKTVDYGGAE [SNU114] | 1.44 ± 0.084 | 1.32 ± 0.057 | 1.65 ± 0.16 | 1.36 ± 0.057 |
| QIPQQLYQSLTPQQLQM [SNF5] | 2.73 ± 0.041 | 2.7 ± 0.038 | 2.57 ± 0.045 | 2.77 ± 0.034 |
| AHMANPLLRKVVDRESD [PRE4] |  |  | 1.13 ± 0.22 |  |
| WYLILSIISSKTSCVVE [RGR1] | 1.46 ± 0.13 | 1.23 ± 0.12 | 1.58 ± 0.26 | 1.18 ± 0.1 |
| KNGNEYNEFLYSKAGRE [QCR8] | 2.77 ± 0.064 | 3 ± 0.081 | 2.77 ± 0.06 | 2.75 ± 0.05 |
| IELNFDAVKDFKLGKFN [QCR2] | 3.31 ± 0.26 | 2.69 ± 0.17 | 3.31 ± 0.093 | 3.71 ± 0.25 |
| DTFGEGIIITDQSNVQY [BRR2] | 3.11 ± 0.17 | 3.21 ± 0.13 | 2.79 ± 0.1 | 2.94 ± 0.093 |
| MCVSKGNASLKYIALQV [YCG1] | 2.54 ± 0.099 | 2.02 ± 0.077 | 1.48 ± 0.12 | 2.6 ± 0.084 |
| VTLVNGKRRMNPGPSVQ [RPS30A] | 2.69 ± 0.049 | 2.94 ± 0.031 | 2.81 ± 0.047 | 2.87 ± 0.033 |
| SATPNAAAFSQQQNASS [GAL11] | 2.94 ± 0.063 | 3.1 ± 0.054 | 2.89 ± 0.035 | 3.09 ± 0.041 |
| SDSSKPAFSFGTKSNEK [YJL041W/NSP1] | 2.97 ± 0.073 | 2.19 ± 0.058 | 2.79 ± 0.076 | 2.75 ± 0.041 |
| SVLQLIVSEDHIILDTI [MED1] | 2.2 ± 0.17 | 2.7 ± 0.19 |  | 2.08 ± 0.26 |
| ANLGKYGILSIDDLIHE [RPL7A] | 1.78 ± 0.092 | 1.98 ± 0.094 | 1.54 ± 0.17 | 1.15 ± 0.086 |
| KELDQELIIDPLFKKAL [BRN1] | 3.23 ± 0.071 | 3.07 ± 0.073 | 3.13 ± 0.11 | 3.07 ± 0.052 |
| IWLKDFIAVGQILPESQ [SIR3] |  | 2.37 ± 0.28 |  |  |
| YPVYTRLRTLCRDSDDH [DIS3] | 2.56 ± 0.2 | 2.77 ± 0.13 | 2.29 ± 0.24 | 2.95 ± 0.046 |
| KTICNLLISDTESNELI [IRR1] | 2.74 ± 0.063 | 2.73 ± 0.075 | 2.4 ± 0.055 | 2.68 ± 0.065 |
| VGKRVRYLVGGNKIQKV [RPS7A] | 1.25 ± 0.084 | 1.98 ± 0.18 | 1.49 ± 0.26 | 1.7 ± 0.17 |
| HFQDQKNKKIEVYTKTI [POP7] | 3.19 ± 0.11 | 2.83 ± 0.12 | 3.23 ± 0.084 | 2.7 ± 0.086 |
| VDNENNKPAIKEDSTIQ [SWI3] | 2.84 ± 0.063 | 2.97 ± 0.069 | 3.08 ± 0.058 | 3.12 ± 0.062 |
| HKHNIMKNENANPKKLA [CDC53] | 2.14 ± 0.042 | 2.31 ± 0.049 | 2 ± 0.064 | 2.35 ± 0.057 |
| ENNSDSNSNNNGNKDSS [SWI1] | 2.95 ± 0.089 | 3.12 ± 0.076 | 3.05 ± 0.06 | 3.04 ± 0.068 |
| MAGVKAYELRTKSKEQL [RPL35A] | 3 ± 0.11 | 3.38 ± 0.1 | 2.94 ± 0.067 | 3.17 ± 0.13 |
| KAINQELEDVAVKKLYA [YCS4] | 3.26 ± 0.17 | 3.23 ± 0.13 | 2.72 ± 0.07 | 2.94 ± 0.08 |
| PQYQYQRRYVIKEKVQF [ITC1] | 1.56 ± 0.069 | 1.88 ± 0.047 | 1.79 ± 0.095 | 1.47 ± 0.03 |

| Sequence | protein stability index (doa10∆) | protein stability index (pdr5∆) | protein stability index (san1∆) | protein stability index (ubr1∆) |
| --- | --- | --- | --- | --- |
| INLTQTYGISVVDVALK [NUT1] | 2.24 ± 0.077 | 1.91 ± 0.054 | 1.76 ± 0.1 | 2.55 ± 0.038 |
| WIKFLLHTLYLRPASAI [SSN8] | 1.74 ± 0.045 | 1.29 ± 0.035 | 1.25 ± 0.068 | 1.15 ± 0.038 |
| NGILPDDELMNWRRLSG [SSN2] | 2.97 ± 0.087 | 2.9 ± 0.073 | 2.98 ± 0.11 | 3.19 ± 0.091 |
| LKLCLGDHSSVPVALKG [YMR129W/POM152] | 2.79 ± 0.086 | 2.91 ± 0.06 | 2.74 ± 0.1 | 3 ± 0.048 |
| YLEDIIGTANYKPLIEE [SMC4] | 2.95 ± 0.1 | 3.28 ± 0.11 | 3.17 ± 0.077 | 3.23 ± 0.076 |
| IMNLITNEPCGAQFSRS [RPN4] |  | 3.1 ± 0.3 |  | 2.96 ± 0.17 |
| STFREWKNLVLKLSQAF [YJR042W/NUP85] | 2.85 ± 0.079 | 2.37 ± 0.096 | 2.64 ± 0.068 | 2.74 ± 0.076 |
| NDWQMLEMLKPCVEDGF [RPB2] | 2.79 ± 0.09 | 3.22 ± 0.21 | 3.06 ± 0.12 | 2.68 ± 0.099 |
| AYRTDVIQALGGIETIL [PRP8] | 1.44 ± 0.073 | 1.54 ± 0.066 | 1.46 ± 0.13 | 1.45 ± 0.054 |
| IGIVDYEAGASHGNPVV [FAS1] | 3.01 ± 0.068 | 2.99 ± 0.064 | 3.03 ± 0.063 | 3.19 ± 0.04 |
| AFEAELSNIPLLLITHH [ARP9] | 1.49 ± 0.071 | 1.68 ± 0.072 | 1.64 ± 0.089 | 1.58 ± 0.066 |
| TGKTLLARACAAQTNAT [RPT5] | 2.72 ± 0.13 | 2.92 ± 0.089 | 2.9 ± 0.096 | 2.61 ± 0.29 |
| QKKIQINKEMGELNSKL [SMC3] |  | 3.34 ± 0.21 |  | 3.15 ± 0.13 |
| TIAKQVLNGQKIVVVRA [RPL16B] | 3.04 ± 0.19 | 2.9 ± 0.13 |  | 2.6 ± 0.14 |
| SVTRAGNIISSDKTIVP [SIN4] | 3.01 ± 0.12 | 2.88 ± 0.099 | 2.97 ± 0.12 | 3.1 ± 0.068 |
| IRIYDLGKKKATVDEFP [RPL10] | 1.47 ± 0.054 | 1.51 ± 0.048 | 1.21 ± 0.098 | 1.29 ± 0.035 |
| LYHHTTKTILSGTDGST [SRP72] | 3.04 ± 0.068 | 2.82 ± 0.051 | 2.49 ± 0.088 | 2.83 ± 0.043 |
| KPAFSFGAKSDEKKDSD [YJL041W/NSP1] | 3.35 ± 0.087 | 3.25 ± 0.069 | 3.21 ± 0.058 | 3.46 ± 0.056 |
| ILVPDLYHLVIMKFQSL [ECM29] | 1.28 ± 0.081 | 1.3 ± 0.086 | 1.12 ± 0.15 | 1.38 ± 0.063 |
| EISKKDFVRKGGLQKGK [SIR3] | 2.38 ± 0.11 | 1.91 ± 0.083 | 1.98 ± 0.11 | 1.95 ± 0.092 |
| RTGPKALPDAVTIIEPK [RPS3] | 2.97 ± 0.058 | 3.03 ± 0.066 | 3.1 ± 0.059 | 3.09 ± 0.06 |
| SLAVRSLQDRSSLVRRN [YCS4] | 2.4 ± 0.041 | 2.71 ± 0.047 | 2.35 ± 0.045 | 2.59 ± 0.038 |
| LCSMLQEASQVTFIFGE [MED11] | 2.06 ± 0.053 | 2.74 ± 0.048 | 2.61 ± 0.055 | 2.56 ± 0.037 |
| SKYCEKSLPLLITVMEK [YCS4] | 1.76 ± 0.052 | 1.86 ± 0.048 | 2.12 ± 0.067 | 1.87 ± 0.039 |
| LKVLSEHLDCMNFISKE [PCI8] | 2.72 ± 0.09 | 3.14 ± 0.099 | 3.2 ± 0.047 | 3.03 ± 0.061 |
| ISLIPELSVVLSGIIQD [RRI2] | 1.75 ± 0.077 | 1.76 ± 0.09 | 1.96 ± 0.12 | 1.99 ± 0.064 |
